This test addresses T1, GST::OsABI5 fusion protein (Oryza sativa subsp. japonica (Rice), UniProt Q8RZ35).
T1 chain: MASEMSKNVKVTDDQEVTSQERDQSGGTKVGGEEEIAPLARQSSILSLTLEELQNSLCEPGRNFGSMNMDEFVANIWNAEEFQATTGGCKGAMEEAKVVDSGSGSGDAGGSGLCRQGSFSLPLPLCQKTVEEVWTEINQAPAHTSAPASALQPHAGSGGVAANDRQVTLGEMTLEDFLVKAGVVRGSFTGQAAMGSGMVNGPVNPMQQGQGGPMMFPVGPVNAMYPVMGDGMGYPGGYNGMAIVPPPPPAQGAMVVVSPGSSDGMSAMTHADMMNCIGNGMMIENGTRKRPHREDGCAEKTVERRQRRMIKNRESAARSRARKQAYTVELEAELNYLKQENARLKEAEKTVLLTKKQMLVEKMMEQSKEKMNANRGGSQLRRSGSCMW
The experiment in a line: GST pull-down.

The text below walks through data of PMC10121563 (2023).

B1: MBP::OsJAZ6 fusion protein (protein)
chain: MASAKSGERGSSSFAMACSLLSRYVRQNGAAAGELGLGIRGEADANKGKETMELFPQNSGFGSEAAAVKETPDAREQEKRQLTIFYGGKVLVFDDFPAEKAKDLMQMASKSSSTAQNCVLLPSSATATVADNTKVSAVPAPASALPVAQANAPKPVRPNAADLPQARKASLHRFLEKRKDRLQAKAPYQGSPSDASPVKKELQESQPWLGLGPQVAAPDLSLRQESSQ
As to B1, the binding result was “binds”.

B2: MBP::OsJAZ7 fusion protein (protein)
chain: MAASARPVGVGGERATSFAMACSLLSRYVRQNGAAAAELGLGIRGEGEAPRAAPATMSLLPGEAERKKETMELFPQSAGFGQQDAITADSAADAREQEPEKRQLTIFYGGKVLVFNDFPADKAKGLMQLASKGSPVAPQNAAAPAPAAVTDNTKAPMAVPAPVSSLPTAQADAQKPARANASDMPIARKASLHRFLEKRKDRLNAKTPYQASPSDATPVKKEPESQPWLGLGPNAVVKPIERGQ
Turning to B2, the binding result is recorded as “binds”.
